Four molecules from paper PMC6172220, “Calcineurin B homologous protein 3 binds with high affinity to the CHP binding domain of the human sodium/proton exchanger NHE1” (Scientific Reports, 2006) can be followed below.

B1: MBP-CBD: CHP-binding region of human NHE1 (residues 503-545) fused to maltose-binding protein at its amino-terminus (domain or fragment, UniProt P19634 503-545, looked up)
chain: VDLLAVKKKQETKRSINEEIHTQFLDHLLTGIEDICGHYGHHH
notes: also called MBP-CBD^NHE1; NHE1-CBD; source: E. coli BL21 (DE3), purified (IMAC, SEC on Superdex 200); not shown: MBP, N-terminal, kept; His8, C-terminal, kept
B2: MBP-CBD: CHP-binding region of human NHE1 (residues 503-545) fused to maltose-binding protein (domain or fragment, UniProt P19634 503-545, looked up)
chain: B1 chain
notes: The TEV site is printed without Tyr; No site for removal of the C-terminal His8 is described; also called MBP-CBD^NHE1; NHE1-CBD; source: E. coli BL21 (DE3), purified (IMAC, SEC); not shown: MBP (E. coli malE; UniProtKB P0AEX9 residues 27-393), N-terminal, kept
B3: human calcineurin B homologous protein 3 (CHP3), hexa-histidine tagged (natural protein, UniProt Q96BS2 2-214, looked up)
chain: GAAHSASEEVRELEGKTGFSSDQIEQLHRRFKQLSGDQPTIRKENFNNVPDLELNPIRSKIVRAFFDNRNLRKGPSGLADEINFEDFLTIMSYFRPIDTTMDEEQVELSRKEKLRFLFHMYDSDSDGRITLEEYRNVVEELLSGNPHIEKESARSIADGAMMEAASVCMGQMEPDQVYEGITFEDFLKIWQGIDIETKMHVRFLNMETMALCH
B4: human calcineurin B homologous protein 3 (CHP3), hexa-histidine tagged (natural protein, UniProt Q96BS2 2-214, looked up)
chain: B3 chain
modifications: fluorescent label NT647, randomly attached, labelling efficiency about 30% (MST only)

Values joined by “and” are separate entries in the source; they are usually repeats but may differ in a detail not shown here. Equal values may be shown once.

Details in all cases: both partners purified
The target in assay [1] is B3. As to the kind of experiment: ITC; the same titrations (CHP3 in the syringe, MBP-CBD in the cell, 25 °C, ITC buffer pH 7.2) refitted one by one after the triple-shift correction: corrected active concentrations of CHP3 and MBP-CBD, dH fixed to the average of the raw fits, n = 1 by the correction. (In ITC the heat of successive injections is recorded.)
In assay [2] the target is B3. As to the kind of experiment: ITC; CHP3 (nominal 200 uM) in the syringe injected into MBP-CBD (nominal 20 uM) in the cell, 57 injections, 25 °C; 20 mM HEPES, 150 mM NaCl, 10 mM MgCl2, 5 mM TCEP, pH 7.2; biological triplicates, raw data: each data set fitted freely (KD, dH, n, offset).
For assay [3], the target named is B4. As to the kind of experiment: MST; NT647-labelled CHP3 at 10 nM, MBP-CBD titrated in 16 steps of 1:1 dilution; 20 mM HEPES, 150 mM NaCl, 0.05% Tween-20, 10 mM MgCl2, 5 mM TCEP, pH 7.2; 22 °C; bimolecular binding model; three biological replicates of five technical replicates each.
For assay [4], the target named is B4. The experiment in a line: ITC; 200 uM CHP3 in the syringe injected into 20 uM MBP-CBD in the cell, 57 injections, 25 °C; 20 mM HEPES, 150 mM NaCl, 10 mM MgCl2, 5 mM TCEP, pH 7.2; global fit of three concentration-corrected biological replicates assuming n = 1.
The target of assay [5] is B1. As to the kind of experiment: ITC; the same titrations (CHP3 in the syringe, MBP-CBD in the cell, 25 °C, ITC buffer pH 7.2) refitted one by one after the triple-shift correction: corrected active concentrations of CHP3 and MBP-CBD, dH fixed to the average of the raw fits, n = 1 by the correction.
The target of assay [6] is B1. The experiment in a line: ITC; CHP3 (nominal 200 uM) in the syringe injected into MBP-CBD (nominal 20 uM) in the cell, 57 injections, 25 °C; 20 mM HEPES, 150 mM NaCl, 10 mM MgCl2, 5 mM TCEP, pH 7.2; biological triplicates, raw data: each data set fitted freely (KD, dH, n, offset).
In assay [7] the target is B2. As to the kind of experiment: SEC; analytical SEC, Superdex 200 10/300 GL; 20 uM samples mixed equimolar (250 ul each); 20 mM HEPES, 150 mM NaCl, 1 mM TCEP, pH 7.2; peak fractions checked by SDS-PAGE.

In general, Kd refers to the equilibrium constant for the complex coming apart. Turning to B1, the Kd is 3.1 nM and 2.1 nM and 5.1 nM and 3.4 nM in assay [1]; 3 nM and 2.4 nM and 4.5 nM and 3.3 nM in assay [2]. Turning to B2, the Kd in assay [3] was 62.7 nM and 54.8 nM and 49 nM and 55.5 nM; in assay [4] it was 3 nM. The term stoichiometry N denotes a count of units in the complex or per binding partner. Take B3: the “stoichiometry N” value in assay [5] is 1; in assay [6], 0.97 and 1.2 and 1.1 and 1.09. Take B4: the “stoichiometry N” value in assay [7] stood at 1.
